Experimental data from US20100081787A1 (FIBREX MEDICAL RESEARCH AND DEVELOPMENT, published 2010).
Numbered stars: 1 amine (or outer) side, 2 acyl side, 3 side chain; on linkers, the order of the positions; unused ones are H or OH. Square brackets hold non-standard residues; d marks the D form. Ends that are not written are not given here. ACHC(1S,2R) = O=C([C@H]1CCCC[C@H]1N[*:1])[*:2]

Biological target: T1, vascular endothelial (VE) cadherin (human, UniProt P33151 48-784)
T1 sequence (looked up): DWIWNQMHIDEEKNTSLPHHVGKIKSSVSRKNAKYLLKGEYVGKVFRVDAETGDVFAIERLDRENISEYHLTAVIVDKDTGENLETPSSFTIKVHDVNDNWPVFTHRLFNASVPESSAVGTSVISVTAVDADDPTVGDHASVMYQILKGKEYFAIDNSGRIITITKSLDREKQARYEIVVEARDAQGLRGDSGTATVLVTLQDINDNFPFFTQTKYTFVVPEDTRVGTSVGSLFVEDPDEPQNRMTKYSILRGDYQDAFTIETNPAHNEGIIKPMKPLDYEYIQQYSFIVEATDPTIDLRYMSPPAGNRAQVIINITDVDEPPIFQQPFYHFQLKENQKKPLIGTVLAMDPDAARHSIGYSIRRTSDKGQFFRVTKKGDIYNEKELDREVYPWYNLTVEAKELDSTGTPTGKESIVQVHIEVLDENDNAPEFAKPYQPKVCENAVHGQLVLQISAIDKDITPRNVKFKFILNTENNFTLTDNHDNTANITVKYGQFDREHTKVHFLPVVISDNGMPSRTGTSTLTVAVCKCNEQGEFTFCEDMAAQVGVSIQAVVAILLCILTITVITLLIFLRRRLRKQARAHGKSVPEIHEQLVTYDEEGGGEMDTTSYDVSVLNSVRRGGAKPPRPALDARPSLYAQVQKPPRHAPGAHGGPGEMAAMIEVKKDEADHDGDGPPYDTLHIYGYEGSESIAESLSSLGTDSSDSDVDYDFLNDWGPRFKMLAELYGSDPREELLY
Assay: cell-based or functional assay

B1: Gly-His-Arg-Pro-(1S, 2R)Achc-Ile-Ser-Gly-Gly (peptide)
peptide: GHRP[ACHC(1S,2R)]ISGG
**Q.** For B1, which “Relative RhoA stimulation compared to unstimulated control” value is on record?
**A.** 2.2 relative to unstimulated control
